± gives the uncertainty stated by the source.
Assay: protein stability index of a GFP-peptide fusion (yeast GPS) (PSI 1-4); higher = more stable; sorted into four equal gates, so the index is relative within each strain
Procedure, shortened: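 Tiled yeast protein peptides of 17 residues were each joined downstream of GFP, on plasmids that also express Cherry. The pooled library was maintained in yeast, and mid-log cultures in leucine-free medium were sorted into four equal gates on the GFP/Cherry ratio. Plasmids from every gate were amplified by PCR and sequenced on Illumina, with barcodes linking reads to strains. The protein stability index of a peptide is its gate-number-weighted read frequency summed over the gates.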

Sequence: QQVVCIFSYGPHIQKML [POP6]
- protein stability index (doa10∆): 1.66 ± 0.053
- protein stability index (pdr5∆): 1.77 ± 0.047
- protein stability index (san1∆): 1.74 ± 0.11
- protein stability index (ubr1∆): 2.07 ± 0.054

Sequence: ANNIVNIVSDAGANDTS [GRR1]
- protein stability index (doa10∆): 3.2 ± 0.12
- protein stability index (pdr5∆): 3.14 ± 0.074
- protein stability index (san1∆): 3.64 ± 0.1
- protein stability index (ubr1∆): 3.13 ± 0.094

Sequence: IINPHAIPSRMTVAHLI [RPB2]
- protein stability index (doa10∆): 1.79 ± 0.054
- protein stability index (pdr5∆): 2.06 ± 0.044
- protein stability index (san1∆): 1.86 ± 0.076
- protein stability index (ubr1∆): 2.1 ± 0.046

Sequence: LSVVKYLLASLKDSKDF [RPN9]
- protein stability index (doa10∆): 2.19 ± 0.12
- protein stability index (pdr5∆): 2.67 ± 0.16

Sequence: DGAGGDNEVQRTMLELI [RPT1]
- protein stability index (doa10∆): 3.6 ± 0.16
- protein stability index (pdr5∆): 2.95 ± 0.13
- protein stability index (san1∆): 3.44 ± 0.11
- protein stability index (ubr1∆): 3.36 ± 0.066

Sequence: VLEKKTRQASDLASSKE [RPN5]
- protein stability index (doa10∆): 3.38 ± 0.23
- protein stability index (pdr5∆): 3.41 ± 0.15
- protein stability index (ubr1∆): 2.97 ± 0.24

Sequence: SHHLKADTIDHDELIDS [YGL172W/NUP49]
- protein stability index (doa10∆): 3.03 ± 0.063
- protein stability index (pdr5∆): 3.25 ± 0.046
- protein stability index (san1∆): 3.08 ± 0.042
- protein stability index (ubr1∆): 3.08 ± 0.038

Sequence: IDLLTFQYGSRLPTFLK [RPP1]
- protein stability index (doa10∆): 1.89 ± 0.064
- protein stability index (pdr5∆): 1.84 ± 0.052
- protein stability index (san1∆): 1.6 ± 0.081
- protein stability index (ubr1∆): 1.57 ± 0.047

Sequence: FRNNKNDNYSSDMENDN [REC8]
- protein stability index (doa10∆): 3.44 ± 0.18
- protein stability index (pdr5∆): 3.15 ± 0.23
- protein stability index (san1∆): 3.2 ± 0.17
- protein stability index (ubr1∆): 2.73 ± 0.11

Sequence: MKTQRFVSNMGFDIQKS [SIR4]
- protein stability index (doa10∆): 2.63 ± 0.069
- protein stability index (pdr5∆): 2.24 ± 0.058
- protein stability index (san1∆): 2.5 ± 0.083
- protein stability index (ubr1∆): 2.01 ± 0.04

Sequence: QRTAQDRVQQDSEDEDS [YML031W/NDC1]
- protein stability index (doa10∆): 2.78 ± 0.089
- protein stability index (pdr5∆): 2.56 ± 0.078
- protein stability index (san1∆): 3.24 ± 0.081
- protein stability index (ubr1∆): 2.91 ± 0.052

Sequence: FGAKSDENKAGATSKPA [YJL041W/NSP1]
- protein stability index (doa10∆): 3.25 ± 0.11
- protein stability index (pdr5∆): 3.23 ± 0.1
- protein stability index (san1∆): 3.44 ± 0.065
- protein stability index (ubr1∆): 3.25 ± 0.086

Sequence: LPLWHLLNRIPRMYHIG [POP1]
- protein stability index (doa10∆): 3.06 ± 0.17
- protein stability index (pdr5∆): 2.97 ± 0.15
- protein stability index (san1∆): 2.06 ± 0.21
- protein stability index (ubr1∆): 2.63 ± 0.15

Sequence: ALIENWAADSVSSRVRG [FAS1]
- protein stability index (doa10∆): 3.45 ± 0.12
- protein stability index (pdr5∆): 3.1 ± 0.14
- protein stability index (san1∆): 2.84 ± 0.082
- protein stability index (ubr1∆): 3.34 ± 0.075

Sequence: LKKQLHVSHEAMREVND [YIL149C/MLP2]
- protein stability index (doa10∆): 2.77 ± 0.066
- protein stability index (pdr5∆): 2.24 ± 0.058
- protein stability index (san1∆): 2.91 ± 0.07
- protein stability index (ubr1∆): 2.85 ± 0.076

Sequence: FSSNERYFFWLQEKNSG [RPN13]
- protein stability index (doa10∆): 1.27 ± 0.048
- protein stability index (pdr5∆): 1.65 ± 0.072
- protein stability index (san1∆): 2.18 ± 0.076
- protein stability index (ubr1∆): 2.25 ± 0.055

Sequence: VMIAEIPTLAIDSVEVE [RPB3]
- protein stability index (doa10∆): 2.3 ± 0.18
- protein stability index (pdr5∆): 2.65 ± 0.11

Sequence: NEAEQVYLSLLDKDSSQ [RPN6]
- protein stability index (doa10∆): 3.03 ± 0.2
- protein stability index (pdr5∆): 3.29 ± 0.076
- protein stability index (ubr1∆): 3.45 ± 0.22

Sequence: CIQVNCLNCEKSKLFEW [SNM1]
- protein stability index (doa10∆): 3.11 ± 0.065
- protein stability index (pdr5∆): 3.29 ± 0.058
- protein stability index (san1∆): 3.13 ± 0.05
- protein stability index (ubr1∆): 3.16 ± 0.052

Sequence: QAIAKNNPQVVNAITVA [SNF5]
- protein stability index (doa10∆): 1.85 ± 0.039
- protein stability index (pdr5∆): 2.02 ± 0.043
- protein stability index (san1∆): 1.63 ± 0.05
- protein stability index (ubr1∆): 1.61 ± 0.036

Sequence: HIILDTISECNLYDDVK [MED1]
- protein stability index (doa10∆): 2.49 ± 0.073
- protein stability index (pdr5∆): 3.18 ± 0.087
- protein stability index (san1∆): 3.19 ± 0.067
- protein stability index (ubr1∆): 3 ± 0.11

Sequence: ANMATVPSTTNVNMTVN [MED6]
- protein stability index (doa10∆): 2.92 ± 0.099
- protein stability index (pdr5∆): 3.08 ± 0.084
- protein stability index (ubr1∆): 2.93 ± 0.052

Sequence: NNDQKRQQAYKTAQTLD [YJL041W/NSP1]
- protein stability index (doa10∆): 3.14 ± 0.071
- protein stability index (pdr5∆): 3.17 ± 0.063
- protein stability index (san1∆): 3.33 ± 0.053
- protein stability index (ubr1∆): 3.23 ± 0.047

Sequence: TQKDSARVSPRNNVANK [YAR002W/NUP60]
- protein stability index (doa10∆): 3.22 ± 0.1
- protein stability index (pdr5∆): 3.52 ± 0.12
- protein stability index (san1∆): 3.23 ± 0.096
- protein stability index (ubr1∆): 3.02 ± 0.072

Sequence: KAAAGAGSAALKIIHDT [RPO31]
- protein stability index (doa10∆): 3.45 ± 0.13
- protein stability index (pdr5∆): 1.8 ± 0.17
- protein stability index (san1∆): 1.72 ± 0.13
- protein stability index (ubr1∆): 1.77 ± 0.18

Sequence: LKEPVEDIIKRTSPIDN [NUT2]
- protein stability index (doa10∆): 2.97 ± 0.083
- protein stability index (pdr5∆): 3.09 ± 0.1
- protein stability index (san1∆): 2.64 ± 0.1
- protein stability index (ubr1∆): 3.2 ± 0.061

Sequence: YDSRGVGEMKLLKKKDD [YLR335W/NUP2]
- protein stability index (doa10∆): 2.51 ± 0.098
- protein stability index (pdr5∆): 2.64 ± 0.17
- protein stability index (san1∆): 2.52 ± 0.1
- protein stability index (ubr1∆): 2.6 ± 0.17

Sequence: VVGQLFQIDNDNIRYAT [SMC2]
- protein stability index (doa10∆): 2.67 ± 0.067
- protein stability index (pdr5∆): 2.67 ± 0.066
- protein stability index (san1∆): 2.65 ± 0.065
- protein stability index (ubr1∆): 2.88 ± 0.078

Sequence: KAIPTFSFGKPFFSSNT [YIL149C/MLP2]
- protein stability index (doa10∆): 3.07 ± 0.048
- protein stability index (pdr5∆): 3.14 ± 0.046
- protein stability index (san1∆): 2.94 ± 0.035
- protein stability index (ubr1∆): 3.011 ± 0.028

Sequence: RYDCSFCGKKTVKRGAA [RPL43A]
- protein stability index (doa10∆): 2.07 ± 0.066
- protein stability index (pdr5∆): 2.13 ± 0.071
- protein stability index (san1∆): 2.21 ± 0.11
- protein stability index (ubr1∆): 2.12 ± 0.053

Sequence: RRLPMTMFTAEQSELLK [SNF2]
- protein stability index (doa10∆): 2.99 ± 0.073
- protein stability index (pdr5∆): 3.08 ± 0.073
- protein stability index (san1∆): 2.83 ± 0.053
- protein stability index (ubr1∆): 2.91 ± 0.055

Sequence: DFSLRYISNLLYGVTIC [REC8]
- protein stability index (doa10∆): 2.13 ± 0.039
- protein stability index (pdr5∆): 1.71 ± 0.041
- protein stability index (san1∆): 1.83 ± 0.074
- protein stability index (ubr1∆): 1.5 ± 0.027

Sequence: APGASVPATAAPGTEAG [SWI1]
- protein stability index (doa10∆): 2.99 ± 0.094
- protein stability index (pdr5∆): 3.05 ± 0.075
- protein stability index (san1∆): 2.92 ± 0.079
- protein stability index (ubr1∆): 3.18 ± 0.07

Sequence: VGCIFAELIGLQPIFKG [SSN3]
- protein stability index (doa10∆): 3.02 ± 0.085
- protein stability index (pdr5∆): 2.42 ± 0.097
- protein stability index (san1∆): 3.06 ± 0.04
- protein stability index (ubr1∆): 2.5 ± 0.094

Sequence: FKVQIIELLSYLVEAPW [YML103C/NUP188]
- protein stability index (doa10∆): 1.71 ± 0.091
- protein stability index (pdr5∆): 2.03 ± 0.12
- protein stability index (san1∆): 1.69 ± 0.21
- protein stability index (ubr1∆): 2.26 ± 0.14

Sequence: ISKRKEELEEEFRKKLK [YIL149C/MLP2]
- protein stability index (doa10∆): 3.49 ± 0.11
- protein stability index (pdr5∆): 3.35 ± 0.1
- protein stability index (san1∆): 3.06 ± 0.089
- protein stability index (ubr1∆): 3.67 ± 0.11

Sequence: PSYYYYVDPETTYTYQQ [ROX3]
- protein stability index (doa10∆): 2.93 ± 0.075
- protein stability index (pdr5∆): 3.09 ± 0.079
- protein stability index (san1∆): 2.85 ± 0.053
- protein stability index (ubr1∆): 3.16 ± 0.07

Sequence: IAKATKEFKGIKVTVQL [RPL12A]
- protein stability index (ubr1∆): 3.35 ± 0.18

Sequence: PPTDTNVEESVSKADIL [POP5]
- protein stability index (doa10∆): 3.21 ± 0.12
- protein stability index (pdr5∆): 3.18 ± 0.12
- protein stability index (san1∆): 2.79 ± 0.069
- protein stability index (ubr1∆): 3.05 ± 0.095

Sequence: SLSDELNLDEIVACELI [YJL039C/NUP192]
- protein stability index (doa10∆): 2.75 ± 0.13
- protein stability index (pdr5∆): 2.53 ± 0.1
- protein stability index (ubr1∆): 2.61 ± 0.14

Sequence: NAKESNYTDLIWFPEDF [MED1]
- protein stability index (doa10∆): 3.06 ± 0.094
- protein stability index (pdr5∆): 3.47 ± 0.17
- protein stability index (san1∆): 3.17 ± 0.12
- protein stability index (ubr1∆): 2.28 ± 0.052

Sequence: SAKNRVVILARAKALGI [RPL32]
- protein stability index (doa10∆): 1.69 ± 0.05
- protein stability index (pdr5∆): 1.74 ± 0.061
- protein stability index (san1∆): 1.76 ± 0.081
- protein stability index (ubr1∆): 2.05 ± 0.042

Sequence: QKNMNDLLRSQLTSLEK [YIL149C/MLP2]
- protein stability index (doa10∆): 2.89 ± 0.073
- protein stability index (pdr5∆): 2.17 ± 0.056
- protein stability index (san1∆): 1.96 ± 0.075
- protein stability index (ubr1∆): 2.35 ± 0.05

Sequence: LIEILRLRALQLYFQKN [RRI2]
- protein stability index (doa10∆): 1.17 ± 0.049
- protein stability index (pdr5∆): 1.28 ± 0.072
- protein stability index (san1∆): 1.26 ± 0.12
- protein stability index (ubr1∆): 1.04 ± 0.076

Sequence: TFTIQLLKLTKVFIRES [YML103C/NUP188]
- protein stability index (doa10∆): 2.17 ± 0.063
- protein stability index (pdr5∆): 3.12 ± 0.08
- protein stability index (san1∆): 2.46 ± 0.086
- protein stability index (ubr1∆): 2.69 ± 0.12

Sequence: PSMMAPLRDNGLLDESP [YML031W/NDC1]
- protein stability index (pdr5∆): 2.79 ± 0.29
- protein stability index (ubr1∆): 3.35 ± 0.11

Sequence: PNIHQNLLPKKSAKTAK [HTA2]
- protein stability index (doa10∆): 2.88 ± 0.19
- protein stability index (pdr5∆): 3.09 ± 0.29
- protein stability index (ubr1∆): 3 ± 0.14

Sequence: HFELGGEKKQKGQALQF [RPL42A]
- protein stability index (doa10∆): 2.72 ± 0.17
- protein stability index (pdr5∆): 2.88 ± 0.1
- protein stability index (san1∆): 2.46 ± 0.094
- protein stability index (ubr1∆): 2.76 ± 0.13

Sequence: QARMMQQQSADHDDSTD [NSL1]
- protein stability index (doa10∆): 2.76 ± 0.051
- protein stability index (pdr5∆): 2.74 ± 0.058
- protein stability index (san1∆): 2.62 ± 0.052
- protein stability index (ubr1∆): 2.76 ± 0.039

Sequence: NTLVRPNGTKKAYVRLT [RPL25]
- protein stability index (san1∆): 3.03 ± 0.17
- protein stability index (ubr1∆): 3.35 ± 0.15

Sequence: AQGDPNLEPLIAKLVAV [NUT1]
- protein stability index (pdr5∆): 1.87 ± 0.13
- protein stability index (san1∆): 3.08 ± 0.19
- protein stability index (ubr1∆): 1.07 ± 0.088

— the supplement of paper PMC9732359
